In article doi:10.1101/2020.12.04.411645:

Target: MBP-tagged full-length CYRI-A (mouse) (UniProt Q8BHZ0)
Test: SPR

Chain of MBP-tagged full-length CYRI-A (mouse) (Q8BHZ0 whole entry): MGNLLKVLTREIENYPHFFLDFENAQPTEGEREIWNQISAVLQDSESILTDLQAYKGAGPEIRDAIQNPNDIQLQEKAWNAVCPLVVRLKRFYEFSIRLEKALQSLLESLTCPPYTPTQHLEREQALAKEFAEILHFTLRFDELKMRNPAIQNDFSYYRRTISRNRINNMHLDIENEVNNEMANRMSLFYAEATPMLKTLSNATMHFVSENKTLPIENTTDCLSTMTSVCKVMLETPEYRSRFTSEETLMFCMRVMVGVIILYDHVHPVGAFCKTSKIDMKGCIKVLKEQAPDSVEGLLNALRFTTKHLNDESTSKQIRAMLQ

Question: “untagged full-length RAC1 Q61L (from UniProt P63000 1-192) (enzyme; other documents disagree on this pair)” was tested. Which Kd did it give?
Answer: 2470 nM
